Test results from article PMC3431386, “Swi1 Associates with Chromatin through the DDT Domain and Recruits Swi3 to Preserve Genomic Integrity” (PLoS ONE, 2012).

How the values were obtained:
Assay in all cases: pull-down; anti-FLAG M2 agarose beads bound to Swi1-FLAG (purified from swi3Δ cells) mixed with His6-Swi3 in lysis buffer A (50 mM Tris-HCl pH 8.0, 150 mM NaCl, 0.1% NP-40, 10% glycerol), 1 hour at 4°C, washed three times, Western blotting with anti-FLAG or His6 antibody
Settings in all cases: both partners purified
Swi1 (750–971)-5FLAG = target: T1, Swi1 (750–971)-5FLAG (S. pombe, UniProt Q9UUM2 750-971)
T1 construct: also called C-terminal Swi1; Swi1 C-terminal region; source: S. pombe swi3Δ cells, nmt1 promoter, purified on anti-FLAG M2 agarose (500 mM NaCl washes); not shown: 5FLAG, C-terminal, kept
T1 sequence (looked up): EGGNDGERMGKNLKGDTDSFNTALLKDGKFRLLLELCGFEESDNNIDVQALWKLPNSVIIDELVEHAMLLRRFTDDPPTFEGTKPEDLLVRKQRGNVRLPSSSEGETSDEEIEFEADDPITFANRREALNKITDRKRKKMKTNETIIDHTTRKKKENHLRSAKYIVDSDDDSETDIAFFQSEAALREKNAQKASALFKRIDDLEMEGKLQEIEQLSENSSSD

Swi1 (250–550)-5FLAG = target: T2, Swi1 (250–550)-5FLAG (S. pombe, UniProt Q9UUM2 250-550)
T2 construct: Swi1, S. pombe, amino acids 250–550 (contains an NLS and the DDT domain); also called DDT domain-containing region; pREP-Swi1(250–550)-5FLAG; source: S. pombe swi3Δ cells, nmt1 promoter, purified on anti-FLAG M2 agarose (500 mM NaCl washes); not shown: 5FLAG, C-terminal, kept
T2 sequence (looked up): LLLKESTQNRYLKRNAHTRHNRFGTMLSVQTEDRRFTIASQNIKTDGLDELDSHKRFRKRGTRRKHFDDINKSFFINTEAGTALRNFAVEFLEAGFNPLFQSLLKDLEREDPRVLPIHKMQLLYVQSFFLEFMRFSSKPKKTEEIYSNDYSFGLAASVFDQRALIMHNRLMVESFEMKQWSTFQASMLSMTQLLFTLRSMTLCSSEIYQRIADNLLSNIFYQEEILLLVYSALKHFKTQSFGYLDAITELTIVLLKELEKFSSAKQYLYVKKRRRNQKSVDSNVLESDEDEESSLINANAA

[1] = target: T3, full-length Swi1 (1–971)-5FLAG (overexpressed from the nmt1 promoter) (S. pombe, UniProt Q9UUM2 1-971)
T3 construct: also called pREP-Swi1-5FLAG; Swi1-FLAG; source: S. pombe swi3Δ cells, nmt1 promoter, purified on anti-FLAG M2 agarose (500 mM NaCl washes); not shown: 5FLAG, C-terminal, kept
T3 sequence (looked up): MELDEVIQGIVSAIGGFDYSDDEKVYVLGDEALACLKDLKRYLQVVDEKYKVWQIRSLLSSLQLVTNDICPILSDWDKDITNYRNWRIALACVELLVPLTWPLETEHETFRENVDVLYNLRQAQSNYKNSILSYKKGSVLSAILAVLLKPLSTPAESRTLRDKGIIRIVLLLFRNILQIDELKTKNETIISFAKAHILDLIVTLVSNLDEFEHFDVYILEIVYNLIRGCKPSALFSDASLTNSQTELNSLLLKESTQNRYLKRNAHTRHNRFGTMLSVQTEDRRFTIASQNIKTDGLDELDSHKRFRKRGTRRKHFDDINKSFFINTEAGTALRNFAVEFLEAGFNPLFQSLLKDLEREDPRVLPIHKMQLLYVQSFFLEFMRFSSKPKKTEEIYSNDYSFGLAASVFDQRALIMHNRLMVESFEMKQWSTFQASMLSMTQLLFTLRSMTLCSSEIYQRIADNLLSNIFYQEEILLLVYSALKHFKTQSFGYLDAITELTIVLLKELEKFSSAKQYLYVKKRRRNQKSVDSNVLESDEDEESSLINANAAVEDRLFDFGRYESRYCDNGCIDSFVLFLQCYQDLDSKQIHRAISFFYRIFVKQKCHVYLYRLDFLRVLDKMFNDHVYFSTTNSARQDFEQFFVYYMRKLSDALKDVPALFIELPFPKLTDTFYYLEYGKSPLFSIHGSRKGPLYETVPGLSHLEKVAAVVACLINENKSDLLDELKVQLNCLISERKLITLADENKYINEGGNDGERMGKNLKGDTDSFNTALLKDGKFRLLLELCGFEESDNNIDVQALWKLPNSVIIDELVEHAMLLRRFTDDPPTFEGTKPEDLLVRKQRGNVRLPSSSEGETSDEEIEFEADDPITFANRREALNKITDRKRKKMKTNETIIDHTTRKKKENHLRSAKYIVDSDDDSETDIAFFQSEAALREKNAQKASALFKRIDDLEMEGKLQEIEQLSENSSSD

Measured: binding result

B1: hexahistidine-tagged Swi3 (His6-Swi3) (natural protein, S. pombe, UniProt O14350 1-181, looked up)
chain: MSTAASDSGVEKLVEENKREEVKKNEEEKEFDLGLEENPDSVKKPRKRLAKFDEERLISENGIPKLRKMMRKVKLKGKGHEAKDLKQLLGMYHIWTHELYPRATFDDSISYLKTLGKHRSVKVRRRGWINEIAVENGSDSNASLFTGPSSNSLVNLTSGDPYVQDTADDAFVAQDNDTQLE
notes: Swi3, S. pombe; swi3 open reading frame in the NdeI/XhoI site of pET28a; also called recombinant Swi3; pET28a-Swi3; source: E. coli BL21(DE3), purified (Ni-NTA)
binds: all assays above
